Consider three molecules from PMC2690590, “Functional recombinant MHC class II molecules and high-throughput peptide-binding assays” (Immunome Research, 2009).

Experiment [1] deals with DR1GrpE: DR1 α chain 1–181 and β chain 1–190 fused C-terminally to GrpE, not biotinylated (human). Briefly: AlphaScreen or HTRF. For orientation: In Alpha technology, singlet oxygen from a donor bead excites a nearby acceptor bead.
For experiment [2], the target named is DP401: DPA1*0103/DPB1*0401 (human). Briefly: AlphaScreen or HTRF; direct LOCI: α and biotinylated β chains refolded with peptide titration, 48 h at 18°C; streptavidin donor beads and anti-MHC-II antibody acceptor beads; half saturation (EC50) fitted to Y = Bmax*X/(KD+X) and taken as approximate KD; pH as optimised for each MHC (DR2a at pH 6).
Experiment [3] concerns the target DR2a (DRA*0101/DRB5*0101) with non-biotinylated β chain, competitive LOCI assay (human). Briefly: AlphaScreen or HTRF.
Experiment [4] addresses DR2a (DRA*0101/DRB5*0101), biotinylated, direct LOCI assay at pH 6 (human). Briefly: AlphaScreen or HTRF; direct LOCI: α and biotinylated β chains refolded with peptide titration, 48 h at 18°C; streptavidin donor beads and anti-MHC-II antibody acceptor beads; half saturation (EC50) fitted to Y = Bmax*X/(KD+X) and taken as approximate KD; pH as optimised for each MHC (DR2a at pH 6).

Experiment [5] concerns the target DR3: DRA*0101/DRB1*0301 (human). The experiment is described as above.
The target of experiment [6] is DRB1*0813: DRA*0101/DRB1*0813 (human). The description is as above.
Experiment [7] addresses I-E^d (mouse MHC class II) (mouse) (UniProt P01904). The description is as above.
Experiment [8] addresses DRB3*0301: DRA*0101/DRB3*0301 (human). Described as above.
The target of experiment [9] is DR4 (DRA*0101/DRB1*0401), biotinylated, LOCI assay (human). The experiment is described as above.

Molecule FLYGALLLA [MBP peptide …] gave a 50% inhibitory concentration (IC50) in experiment [1] of 3920 nM. The molecule further gave a dissociation constant Kd in experiment [2] of 34 nM.
For the molecule IQMLKNGKKIPKVEMS [Murine β2m peptide …], the half-inhibitory concentration (IC50) in experiment [3] worked out at 3 nM; in experiment [1], 1230 nM. The Kd in [4] is 6 nM; in experiment [5], 21 nM; in [6], 73 nM; in experiment [7], 117 nM; in experiment [8], 70 nM.
On to YLFFYRKSV [TERT572Y peptide …], for which, in experiment [1], the IC50 was 4290 nM. In addition, the dissociation constant Kd in experiment [4] was 2650 nM; in experiment [9] it was 1590 nM; in [6], 95 nM; in experiment [7], 322 nM.

Broadly, the IC50 is the concentration needed to halve the response being measured. Usually Kd stands for the free concentration of one partner at which half of the binding sites on the other are occupied at equilibrium, for simple one-to-one binding. High values mean lower affinity, low ones higher affinity.
